Biological target: PKM2 (pyruvate kinase M, isoform M2) (human (endogenous in HUVECs)) (UniProt P14618)
Experiment: native gel or EMSA

Sequence of PKM2 (pyruvate kinase M, isoform M2), P14618 1-531 (enzyme; other documents disagree on this pair) (P14618 whole entry, canonical isoform): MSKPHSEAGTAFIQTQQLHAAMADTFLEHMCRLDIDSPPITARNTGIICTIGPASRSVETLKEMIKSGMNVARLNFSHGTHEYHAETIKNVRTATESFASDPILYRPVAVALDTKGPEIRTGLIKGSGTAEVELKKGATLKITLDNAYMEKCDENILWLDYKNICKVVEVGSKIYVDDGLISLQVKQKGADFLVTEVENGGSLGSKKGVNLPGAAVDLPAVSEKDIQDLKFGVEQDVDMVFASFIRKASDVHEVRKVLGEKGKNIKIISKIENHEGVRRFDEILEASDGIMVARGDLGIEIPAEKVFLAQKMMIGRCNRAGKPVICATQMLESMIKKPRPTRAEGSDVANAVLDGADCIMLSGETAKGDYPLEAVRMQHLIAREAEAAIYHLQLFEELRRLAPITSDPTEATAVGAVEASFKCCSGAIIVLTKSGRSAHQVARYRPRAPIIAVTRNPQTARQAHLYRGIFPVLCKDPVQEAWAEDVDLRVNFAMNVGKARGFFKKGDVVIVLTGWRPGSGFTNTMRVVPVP

PKM2 (pyruvate kinase M, isoform M2), P14618 1-531 (enzyme; other documents disagree on this pair)
stoichiometry N: 2

Reference: article PMC11121179
